The values that follow come from patent EP4537907A1 (Enthera S.r.l., dated 2025).

In experiment [1] the target is T1, mouse CD248 expressed on the cell membrane of transiently transfected HEK 293 cells (mouse, UniProt Q91V98 18-765).
T1 construct: whole, on cells; also called mouse CD248+ cells
T1 sequence (looked up): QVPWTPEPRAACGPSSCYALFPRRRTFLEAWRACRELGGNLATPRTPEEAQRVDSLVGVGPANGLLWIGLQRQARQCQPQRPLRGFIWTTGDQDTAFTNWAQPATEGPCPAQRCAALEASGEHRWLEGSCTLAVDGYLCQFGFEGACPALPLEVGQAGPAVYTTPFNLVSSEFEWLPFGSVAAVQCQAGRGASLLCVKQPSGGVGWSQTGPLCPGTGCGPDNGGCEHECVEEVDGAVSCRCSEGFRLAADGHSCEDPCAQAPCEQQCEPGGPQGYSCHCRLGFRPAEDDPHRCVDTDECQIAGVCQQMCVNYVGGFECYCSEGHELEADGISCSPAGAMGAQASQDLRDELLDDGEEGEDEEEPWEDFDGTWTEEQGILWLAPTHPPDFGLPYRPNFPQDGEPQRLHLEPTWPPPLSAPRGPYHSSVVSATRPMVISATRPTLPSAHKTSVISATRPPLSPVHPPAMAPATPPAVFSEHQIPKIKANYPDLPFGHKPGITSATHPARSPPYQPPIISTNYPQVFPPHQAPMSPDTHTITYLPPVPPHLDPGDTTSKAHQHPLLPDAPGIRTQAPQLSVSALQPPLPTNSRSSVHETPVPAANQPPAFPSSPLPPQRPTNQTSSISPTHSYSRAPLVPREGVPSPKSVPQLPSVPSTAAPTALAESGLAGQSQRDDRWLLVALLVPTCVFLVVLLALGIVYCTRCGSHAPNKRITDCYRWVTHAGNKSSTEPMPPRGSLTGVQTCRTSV
In words: flow cytometry on transiently transfected HEK 293 cells, secondary anti-human IgG, antibody concentration series. (Flow cytometry measures light scatter and fluorescence of single cells or particles in a stream.)

Experiment [2] has as its target T2, human CD248 expressed on the cell membrane of transiently transfected HEK 293 cells (human, UniProt Q9HCU0 18-757).
T2 construct: whole, on cells; also called human CD248+ cells; CD248-positive cells
T2 sequence (looked up): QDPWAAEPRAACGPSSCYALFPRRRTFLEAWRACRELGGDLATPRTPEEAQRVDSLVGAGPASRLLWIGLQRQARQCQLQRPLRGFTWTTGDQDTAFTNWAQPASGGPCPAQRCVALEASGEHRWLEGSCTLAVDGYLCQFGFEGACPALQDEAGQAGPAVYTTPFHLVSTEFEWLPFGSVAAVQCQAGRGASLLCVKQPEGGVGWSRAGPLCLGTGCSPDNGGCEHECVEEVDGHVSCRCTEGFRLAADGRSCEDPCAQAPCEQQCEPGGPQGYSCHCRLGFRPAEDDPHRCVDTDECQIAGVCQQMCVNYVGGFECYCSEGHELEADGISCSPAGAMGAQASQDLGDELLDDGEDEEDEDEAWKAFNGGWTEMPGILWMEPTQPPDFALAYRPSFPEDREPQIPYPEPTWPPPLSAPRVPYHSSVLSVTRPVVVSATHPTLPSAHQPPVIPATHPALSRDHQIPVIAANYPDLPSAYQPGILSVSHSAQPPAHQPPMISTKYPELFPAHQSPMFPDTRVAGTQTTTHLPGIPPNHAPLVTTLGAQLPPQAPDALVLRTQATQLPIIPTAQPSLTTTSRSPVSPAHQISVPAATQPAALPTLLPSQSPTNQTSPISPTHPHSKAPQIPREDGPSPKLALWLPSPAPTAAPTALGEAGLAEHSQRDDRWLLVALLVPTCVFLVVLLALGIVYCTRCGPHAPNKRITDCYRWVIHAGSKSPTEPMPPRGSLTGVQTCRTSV
The experiment is described as above.

Experiment [3] deals with T3, recombinant human CD248 (internally produced) (human, UniProt Q9HCU0 18-687, limits assumed, biotinylated in the inhibition ELISA).
T3 construct: Soluble recombinant protein; also called human recombinant CD248; biotinylated CD248 (internally produced)
T3 sequence (looked up): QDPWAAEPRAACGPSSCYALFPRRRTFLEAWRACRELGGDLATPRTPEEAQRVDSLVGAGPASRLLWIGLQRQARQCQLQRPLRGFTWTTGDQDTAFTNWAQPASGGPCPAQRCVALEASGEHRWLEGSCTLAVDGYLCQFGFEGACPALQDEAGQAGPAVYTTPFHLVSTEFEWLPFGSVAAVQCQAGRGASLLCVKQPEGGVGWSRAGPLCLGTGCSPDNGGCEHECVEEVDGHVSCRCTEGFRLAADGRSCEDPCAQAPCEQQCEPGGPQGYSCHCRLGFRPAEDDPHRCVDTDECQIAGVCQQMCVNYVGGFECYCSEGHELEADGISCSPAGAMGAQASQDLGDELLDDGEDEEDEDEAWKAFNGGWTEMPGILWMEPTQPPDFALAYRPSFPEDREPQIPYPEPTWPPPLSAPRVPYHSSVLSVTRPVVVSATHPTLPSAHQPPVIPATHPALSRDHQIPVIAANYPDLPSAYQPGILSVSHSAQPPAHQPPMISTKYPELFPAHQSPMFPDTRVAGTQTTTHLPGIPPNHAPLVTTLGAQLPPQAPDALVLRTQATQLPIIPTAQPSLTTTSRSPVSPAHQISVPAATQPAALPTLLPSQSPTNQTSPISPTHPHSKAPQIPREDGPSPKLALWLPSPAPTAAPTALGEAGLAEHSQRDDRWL
In words: competition ELISA: purified IgG4 (S228P/L235E) with biotinylated human CD248, added to immobilised human IGFBP5, Streptavidin-HRP.

Experiment [4] addresses T4, irrelevant antigen expressed on HEK 293 cells after transient transfection (human).
T4 construct: Negative control antigen; also called irrelevant human antigen; irrelevant Ag+ cells
As to the kind of experiment: flow cytometry on HEK 293 cells transiently transfected with an irrelevant antigen (negative control), secondary anti-human IgG.

In experiment [5] the target is T3, recombinant human CD248 (internally …). In words: BLI (Octet platform, BLItz System), mAb captured via Fc on AHC biosensor, soluble antigen at different concentrations.
The target of experiment [6] is T5, recombinant mouse CD248 (internally produced) (mouse, UniProt Q91V98 18-695, limits assumed).
T5 construct: also called murine recombinant CD248; Murine CD248
T5 sequence (looked up): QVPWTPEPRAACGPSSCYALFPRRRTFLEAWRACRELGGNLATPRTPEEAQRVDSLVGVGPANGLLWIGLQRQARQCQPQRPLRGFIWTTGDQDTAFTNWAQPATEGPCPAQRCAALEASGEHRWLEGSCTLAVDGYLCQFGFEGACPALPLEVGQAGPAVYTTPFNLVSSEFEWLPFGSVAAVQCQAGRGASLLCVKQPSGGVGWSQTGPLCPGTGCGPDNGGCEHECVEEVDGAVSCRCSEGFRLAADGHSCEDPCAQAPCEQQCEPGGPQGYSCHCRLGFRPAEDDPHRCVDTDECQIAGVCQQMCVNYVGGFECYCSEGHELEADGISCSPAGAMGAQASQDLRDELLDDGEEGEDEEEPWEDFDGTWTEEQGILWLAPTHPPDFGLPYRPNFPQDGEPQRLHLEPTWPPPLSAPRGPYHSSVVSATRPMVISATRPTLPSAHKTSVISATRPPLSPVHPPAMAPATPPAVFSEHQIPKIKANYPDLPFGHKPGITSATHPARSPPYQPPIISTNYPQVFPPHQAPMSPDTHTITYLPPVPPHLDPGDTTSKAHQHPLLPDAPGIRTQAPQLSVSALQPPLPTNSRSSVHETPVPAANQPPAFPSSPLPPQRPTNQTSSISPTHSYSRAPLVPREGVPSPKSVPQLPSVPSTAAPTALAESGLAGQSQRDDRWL
The description is as above.

B1: YU1023-E03 (antibody, human IgG4, V domains shown)
VH: EVQLLESGGGVVQPGRSLRLSCAASGFTFSSYAMHWVRQAPGKGLEWVAVISYDGSNKYYADSVKGRFTISRDNSKNTLYLQMNSLRAEDTAVYYCARSIAAAGTRWFDPWGQGTLVTVSS
VL: DIQLTQSPSSVSASVGDRVTITCRASQGISSWLAWYQQKPGKAPKLLIYAASSLQSGVPSRFSGSGSGTDFTLTISSLQPEDFATYYCQQANSFPLTFGGGTKLEIK
notes: Tested as full human IgG4 carrying the S228P/L235E mutations; It was scarcely produced (<0.1 mg/ml)
A word on the EC50: it is the concentration that produces a half-maximal response. A lower EC50 goes with greater potency. Broadly, the IC50 is the midpoint of a concentration-inhibition curve. As for B1, the EC50 in experiment [1] was 0.891 µg/mL; in experiment [2], 1.49 µg/mL; in experiment [4] it was 3.84 µg/mL. Besides, in experiment [3], the half-inhibitory concentration (IC50) amounted to 17.4 µg/mL.

B2: YU1023-A02 (antibody, human IgG4, V domains shown)
VH: QVQLVESGPGLVKPSQTLSLTCTVSGGSISSGGYYWSWIRQHPGKGLEWIGYIYYSGSTYYNPSLKSRVTISVDTSKNQFSLKLSSVTAADTAVYYCARVRGRSATYFDYWGQGTTVTVSS
VL: QSVLTQPPSVSGAPGQRVTISCTGSSSNIGAGYDVRWYQQLPGTAPKLLIYANNNRPSGVPDRFSGSKSGTSASLAITGLQTEDEADYYCQSYDISLSGSLFGGGTKLTVL
notes: Tested as full human IgG4 carrying the S228P/L235E mutations; also called YU1023-A02 mAb
Usually Kd stands for the free concentration of one partner at which half of the binding sites on the other are occupied at equilibrium, for simple one-to-one binding. With B2, the EC50 in experiment [1] turned out to be 0.0388 µg/mL; in experiment [2], 0.0523 µg/mL; in experiment [4], 3.16 µg/mL. Besides, the dissociation constant (Kd) turned out to be 9.94 nM in experiment [5] and 10.1 nM in experiment [6]. Moreover, the half-maximal inhibitory concentration (IC50) in experiment [3] came to 20.8 µg/mL.

B3: YU1024-G01 (antibody, human IgG4, V domains shown)
VH: QVQLQESGGGVVQPGRSLRLSCAASGFTFSSYAMHWVRQAPGKGLEWVAVISYDGSNKYYADSVKGRFTISRDNSKNTLYLQMNSLRAEDTAVYYCARNNHPRGERLPQYWGQGTLVTVSS
VL: DIQLTQSPSSLSASVGDRVTITCRASQSVGSYLNWYQHKPGKAPKLLIYVASRLQSGVPSRFSGSGSGTDFTLTINSLQPEDFATYYCQQSYSTPLTFGGGTKVEIK
notes: Tested as full human IgG4 carrying the S228P/L235E mutations
On to B3, for which the values for the EC50 in experiment [1], in experiment [2] and in experiment [4] were roughly 0.00985 µg/mL, 0.0121 µg/mL and 2.11 µg/mL, respectively. The dissociation constant Kd in experiment [5] came out at 3.78 nM; in experiment [6], 3.91 nM. In experiment [3], the 50% inhibitory concentration (IC50) was found to be 4.7 µg/mL.

B4: YU1023-B03 (antibody, human IgG4, V domains shown)
VH: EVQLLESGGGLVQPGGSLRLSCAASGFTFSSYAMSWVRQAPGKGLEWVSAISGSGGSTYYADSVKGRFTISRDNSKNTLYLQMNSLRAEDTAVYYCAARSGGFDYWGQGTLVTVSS
VL: DVVMTQSPLSLPVTPGEPASISCRSSQSLLHSNGYNYLDWYVQKPGQSPQRLIYFTSNRASGVPDRFSGSGSGTDFTLKISRVEAEDVGVYYCMQSIQLPRTFGQGTKVEIK
notes: as for B3
For B4, the EC50 in experiment [1] was found to be 0.0184 µg/mL; in experiment [2], 0.0401 µg/mL; in experiment [4] it was 3.66 µg/mL. The figures for the dissociation constant (Kd) in experiment [5] and in experiment [6] were 18.6 nM and 7.99 nM, respectively. In addition, in experiment [3], the IC50 stood at 47.6 µg/mL.

B5: YU1025-B07 (antibody, V domains shown)
VH: QVQLVQSGGGVVQPGRSLRLSCAASGFTFSSYAMHWVRQAPGKGLEWVAVISYDGSNKYYADSVKGRFTISRDNSKNTLYLQMNSLRAEDTAVYYCARTKARWFGVTTYMDVWGKGTLVTVSS
VL: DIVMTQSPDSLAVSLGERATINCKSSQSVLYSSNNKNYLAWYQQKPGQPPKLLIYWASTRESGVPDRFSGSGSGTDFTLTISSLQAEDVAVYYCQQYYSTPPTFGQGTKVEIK
notes: as for B3
Turning to B5, the figures for the half-maximal effective concentration (EC50) in experiment [1], in experiment [2] and in experiment [4] were 0.0216 µg/mL, 0.0236 µg/mL and 1.68 µg/mL, respectively. Further, the Kd in experiment [5] turned out to be 11.7 nM; in experiment [6], 14.2 nM. Besides, the IC50 in experiment [3] came out at 19.2 µg/mL.
